Data set [1] can be described thus: Enzyme kinetic analysis of yCD series proteins after DTPA modification, marking and purification. The conditions noted are these: for Vmax compared with the original enzyme activity: after EDTA with a 10-fold molar excess of protein. It is filed as biochemical. The source says: The enzyme activity of yCD is not affected by DTPA modification.
FIGS. 24A-24B show the kinetic curve of yCD series protein modified, labeled and purified by DTPA. The enzyme activity of the two proteins is not affected by the labeling conditions. After adding EDTA with a 10-fold molar excess of protein, and it is competitively purified, In-DTPA-yCD compared with the original enzyme activity.
The curve and enzyme kinetic parameters (see FIG. 18 and Table 13) are fitted by the […] protein enzyme kinetics through the Michaelis-Menten formula in the Graph prism program.
Before the protein is labeled by radioisotope, its enzyme function must be determined, and based on the original enzyme function, it should be examined whether it will be affected during the radioactive marking process. The curve and enzyme kinetic parameters of protein are fitted by the Michaelis-Menten formula in the Graph prism program. […] Whether the yCD and RGD4C-yCD protein detected by the same method will be affected under the conditions of DTPA modification, marking and purification. […] After the completion of the radioactive metal mark, it is necessary to add EDTA of 10-fold protein Moire number and react at room temperature for 1 hour to compete for the radioactive metal isotope indium which is not chelated on DTPA. The EDTA in this step also has the chance to chelate the metal zinc ion of the enzyme catalytic center, the enzyme activity is impaired, so it is necessary to analyze the enzyme activity of In-DTPA-yCD and In-RGD4C-yCD protein after competition with EDTA. After the EDTA competitive reaction is completed, the enzyme kinetics analysis can be carried out by reducing the EDTA molecule weight through membrane centrifugation method and by replacing the solution with pH 7.0. […] The curve and receptor binding ability parameters of the protein and integrin αvβ3 are fitted under the conditions of DTPA modification, marking and purification by the One site-Specific binding formula in the Graph prism program (see FIG. 25 and Table 18). […] Although the two proteins after marking are greatly affected by the enzyme activity, they still have good binding ability to the integrin αvβ3 receptor. In consideration of the indispensability of EDTA for radiochemical purity, it retains a considerable amount of enzyme activity. In addition, the effect of integrin αvβ3 receptor binding ability is minimal, in combination of cell uptake, biodistribution and angiography experiment, focusing on the evaluation of target results, and the subsequent biological experiment is still carried out by the marking and purification conditions.

The format of data set [2] is physicochemical. The protocol:
The radiochemical purity of ^111In-DTPA-yCD and ^111In-DTPA-RGD4C-yCD are greater than 95% after marking and purification. Both are stored in HEPES buffer liquid (4° C.) for 48 hours, and the radiochemical purity is still higher than 85% (see FIG. 26). Both are placed in fetal bovine serum (37° C.) to simulate their stability in vivo. After 48 hours, the radiochemical purity of both is about 80%. It is shown that radioactive metal indium-111 is stably chelated on DTPA.

On the set-up of data set [3]: species or system nude mice. The conditions noted are these: mouse, in vivo. The protocol: The arrow is marked as a tumor.
In in-vitro cell experiment, the binding ability of ^111In-DTPA-RGD4C-yCD and the integrin αvβ3 receptor on the cell membrane has been verified. In order to know whether the drug can show its target effect in vivo, integrin αvβ3 is seeded subcutaneously in the right side of nude mice. After the high-expression U87MG tumor cells are grown to 100 mm^3, 60-70 μCi (3-3.5 μg) of ^111In-DTPA-yCD and ^111In-DTPA-RGD4C-yCD are injected directly into the tumor, the images are collected by microSPECT/CT after 1, 4, 24, 48 hours. It can be seen from the image (see FIG. 31) that the drug retention in the ^111In-DTPA-RGD4C-yCD group (orange arrow) is better than that in the ^111In-DTPA-yCD, and the target ligand RGD4C is missing. ^111In-DTPA-yCD enters the systemic blood circulation system within 1 hour and is metabolized by normal organs. From FIG. 31, it can be seen that the kidney is the main metabolic organ of these two drugs. […] After 24-48 hours, the amount of accumulation in the tumor is running out. On the contrary, ^111In-DTPA-RGD4C-yCD is bound with integrin αvβ3 on tumor cells, then the ratio of drug entering the systemic blood circulation is reduced, and the metabolic rate is slow.

Details of data set [4]: species or system nude mice. The conditions noted are these: mouse, in vivo. The protocol: ES-2-luc tumor nude mice is intraperitoneally injected with 50 μCi (2.5 μg) ^111In-DTPA-yCD and ^111In-DTPA-RGD4C-yCD for 1, 4 and 24 hours, then organs are collected and their radioactivity is measured to obtain biodistribution, as shown in Table 19 and Table 20. […] In addition to the part accumulated in the tumor, another part of the drug is absorbed back into the blood circulation system by the peritoneal blood vessels. […] The pancreatic radioactivity of the two drugs is observed after 1 hour of injection. The pancreatic radioactivity of ^111In-DTPA-RGD4C-yCD (8.06±0.88% ID/g) is higher than that of ^111In-DTPA-yCD (3.91±0.36% ID/g), it is suspected that tumor cells invade the pancreas.
The source holds these as a separate data set.

Where [5] appears, read: after 10x EDTA competition and purification.

Consider 5 molecules from patent US10947270B2, “Targeted prodrug cytosine deaminase fusion carrier and application thereof” (National Yang-Ming University, priority 2015, dated 2021).

Where “and” joins values, the source holds several entries; their conditions need not be identical. Identical values can stand only once. Like-named read-outs stand apart in the source and are kept apart here. Some results are limits rather than exact numbers.

B1: DTPA-yCD: yCD protein modified by the metal chelating agent DTPA (conjugate)
chain: MVVTGGMASKWDQKGMDIAYEEAALGYKEGGVPIGGCLINNKDGSVLGRGHNMRFQKGSATLHGEISTLENCGRLEGKVYKDTTLYTTLSPCDMCTGAIIMYGIPRCVVGENVNFKSKGEKYLQTRGHEVVVVDDERCKKIMKQFIDERPQDWFEDIGELEHHHHHH
As to B1, in data set [1], the Km was 0.84 mM and 1.04 mM; the Vmax worked out at 286.8 ± 10.80 µM/min.

B2: In-DTPA-yCD: DTPA-yCD treated with the stable isotope of indium under simulated marking conditions (conjugate)
chain: B1 chain
In the case of B2, in data set [1], the Km stood at 1.12 ± 0.0587 mM, the Vmax stood at 270.0 ± 6.165 µM/min and the “Vmax compared with the original enzyme activity” value is 47%. Besides, in data set [1] (setting [5]), the Km was 1.93 ± 0.286 mM and the Vmax turned out to be 125.2 ± 9.652 µM/min.

B3: ^111In-DTPA-yCD: indium-111 labeled DTPA-yCD protein (conjugate, UniProt Q12178 1-158, looked up)
Cytosine deaminase: MVTGGMASKWDQKGMDIAYEEAALGYKEGGVPIGGCLINNKDGSVLGRGHNMRFQKGSATLHGEISTLENCGRLEGKVYKDTTLYTTLSPCDMCTGAIIMYGIPRCVVGENVNFKSKGEKYLQTRGHEVVVVDDERCKKIMKQFIDERPQDWFEDIGE
modifications: 111In-DTPA label
notes: indium-111 labeled DTPA-yCD protein
On to B3, for which the “radiochemical purity after incubation” value in data set [2] was “about 80%”. For the same molecule, in data set [3], the “time to enter the systemic blood circulation system” value was at most 1 h. Besides, the “radioactivity in the peritoneal cavity reduced to (fraction of 1 hour value)” value in data set [4] is “½”.

B4: DTPA-RGD4C-yCD: RGD4C-yCD protein modified by the metal chelating agent DTPA (conjugate)
chain: MACDCRGDCFCVTGGMASKWDQKGMDIAYEEAALGYKEGGVPIGGCLINNKDGSVLGRGHNMRFQKGSATLHGEISTLENCGRLEGKVYKDTTLYTTLSPCDMCTGAIIMYGIPRCVVGENVNFKSKGEKYLQTRGHEVVVVDDERCKKIMKQFIDERPQDWFEDIGELEHHHHHH
With B4, in data set [1], the Km is 1.16 ± 0.108 mM and the maximal velocity (Vmax) came to 224.6 ± 8.408 µM/min. The “Vmax compared with the original protein” value in data set [1] (after DTPA modification) was found to be 80%. Also, the Vmax in data set [1] (listed as DTPA- RGD4C-yCD) was 224.6 ± 8.408 µM/min.

B5: In-DTPA-RGD4C-yCD: DTPA-RGD4C-yCD treated with the stable isotope of indium under simulated marking conditions (conjugate)
chain: B4 chain
Regarding B5, in data set [1], the Km came to 0.956 ± 0.0768 mM, the maximum rate (Vmax) stood at 226.8 ± 6.918 µM/min and the “Vmax compared with the original enzyme activity” value is given as 40%. For the same molecule, in data set [1] (setting [5]), the Km was found to be 1.63 ± 0.273 mM and the maximal velocity (Vmax) was 117.7 ± 9.510 µM/min.
